The results in this text go back to the RNAGym collection of RNA variant scans (doi:10.7554/elife.80360).

To fix the notation:
B1: HDV Ribozyme (parent)
chain: GGCCGGCAUGGUCCCAGCCUCCUCGCUGGCGCCGGCUGGGCAACAUUCCGAGGGGACCGUCCCCUCGGUAAUGGCGAAUGGGACCCA

The series covers variants of B1. Put plainly: self-cleavage, relative activity (ratio to wild type); higher = more cleavage; co-transcriptional.
With GGCCGGCAUGGUCCCAGCCUCUUCGCUGGCGCCGGAUGGGCAACAUUCCGAGGGGACCGUCCCCUCGGUAAUGGCGAAUGGGACCCA [C22U C36A], the self-cleavage was determined as 0.0739.

As to GGCCGGCAUGGUCCCAGCCUCUUCGAUGGCGCCGGCUGGGCAACAUUCCGAGGGGACCGUCCCCUCGGUAAUGGCGAAUGGGACCCA [C22U C26A], the self-cleavage is 0.997.

On to GGCCGGCAUGGUCCCAGCCUCGUCGCUGGCGCCGGCUGGGCAACAUUCCGAGGGGACCGUCCCCCCGGUAAUGGCGAAUGGGACCCA [C22G U65C], for which the self-cleavage came to 0.0997.

Turning to GGCCGGCAUGGUCCCAGCCUCUUCGCUGGCGCCGGCUGGGCAAAAUUCCGAGGGGACCGUCCCCUCGGUAAUGGCGAAUGGGACCCA [C22U C44A], the self-cleavage was determined as 0.0898. For the variant GGCCGGCAUGGUCCCAGCCUCUUCGCUGGCGCCGGCUGGGCAACAUUCCGCGGGGACCGUCCCCUCGGUAAUGGCGAAUGGGACCCA [C22U A51C], the self-cleavage was 0.928. For the variant GGCCGGCAUGGUCCCAGCCUCUUCGCUGGCGCCGGCUGGGCAACAUUCCGAGGGGAGCGUCCCCUCGGUAAUGGCGAAUGGGACCCA [C22U C57G], the self-cleavage came out at 0.914. For GGCCGGCAUGGUCCCAGCCUCGUCGCUGGCGCCGGCUGGGCAACAUUCCGAGGGGACCGUCCCCUCGGAAAUGGCGAAUGGGACCCA [C22G U69A], the self-cleavage was found to be 0.095. For GGCCGGCAUGGUCCCAGCCUCGUCGCUGGCGCCGGCUGGGCAACAUUCCGAGGGGACCGUCCCCUCGGCAAUGGCGAAUGGGACCCA [C22G U69C], the self-cleavage amounted to 0.0755. For GGCCGGCAUGGUCCCAGCCUCUUCGCUGGCGCCGGCUGGGCAACAUUCCGAGGGGACCGUCCCCUCGGUAAUGGCGAAUGGGACCGA [C22U C86G], the self-cleavage is 0.692. With GGCCGGCAUGGUCCCAGCCUCGUCGCUGGCGCCGGCUGGGCAACAUUCCGAGGGGACCGUCCCCUCGGUAAUGGCGAACGGGACCCA [C22G U79C], the self-cleavage came to 0.105. On to GGCCGGCAUGGUCCCAGCCUCGUCGCUGGCGCCGGCUGGGCAACAUUCCGAGGGGACCGUCCCCUCGGUAAUGGCGAAGGGGACCCA [C22G U79G], for which the self-cleavage came out at 0.0665. For the variant GGCCGGCAUGGUCCCAGCCUCUUCGCUGGCGCCGGCUGGGCAACAUUCCCAGGGGACCGUCCCCUCGGUAAUGGCGAAUGGGACCCA [C22U G50C], the self-cleavage amounted to 0.671. Take GGCCGGCAUGGUCCCAGCCUCUUCACUGGCGCCGGCUGGGCAACAUUCCGAGGGGACCGUCCCCUCGGUAAUGGCGAAUGGGACCCA [C22U G25A]: the self-cleavage was 0.

Turning to GGCCGGCAUGGUCCCAGCCUCUUCUCUGGCGCCGGCUGGGCAACAUUCCGAGGGGACCGUCCCCUCGGUAAUGGCGAAUGGGACCCA [C22U G25U], the self-cleavage turned out to be 0.0287. Consider GGCCGGCAUGGUCCCAGCCUCGUCGCUGGCGCCGGCUGGGCAACAUUCCGAGGGGACCCUCCCCUCGGUAAUGGCGAAUGGGACCCA [C22G G59C], for which the self-cleavage came out at 0.151.

As for GGCCGGCAUGGUCCCAGCCUCUUCGCUGGCGCUGGCUGGGCAACAUUCCGAGGGGACCGUCCCCUCGGUAAUGGCGAAUGGGACCCA [C22U C33U], the self-cleavage was 0.533. With GGCCGGCAUGGUCCCAGCCUCUUCGCUGGCGCCGGCUGCGCAACAUUCCGAGGGGACCGUCCCCUCGGUAAUGGCGAAUGGGACCCA [C22U G39C], the self-cleavage was 0.115. Regarding GGCCGGCAUGGUCCCAGCCUCUUCGCUGGCGCCGGCUGUGCAACAUUCCGAGGGGACCGUCCCCUCGGUAAUGGCGAAUGGGACCCA [C22U G39U], the self-cleavage was determined as 0.163. The value for GGCCGGCAUGGUCCCAGCCUCGUCGCUUGCGCCGGCUGGGCAACAUUCCGAGGGGACCGUCCCCUCGGUAAUGGCGAAUGGGACCCA [C22G G28U] was 0.0739; that for GGCCGGCAUGGUCCCAGCCUCUUCGCUGGCGCCGGCUGGGCAACAUUCCGAGGGGACCGUCCCCUCGGUAAUGGGGAAUGGGACCCA [C22U C75G] was 0.208; that for GGCCGGCAUGGUCCCAGCCUCUUCGCUGGCGCCGGCUGGGCAACAUUCCGAGGGGACCGUCUCCUCGGUAAUGGCGAAUGGGACCCA [C22U C62U] was 0.842. As to GGCCGGCAUGGUCCCAGCCUCUUCGCUGGCGCCGGCUGGGCAACAUUCCGAGGGGACCCUCCCCUCGGUAAUGGCGAAUGGGACCCA [C22U G59C], the self-cleavage was 0.566. For the variant GGCCGGCAUGGUCCCAGCCUCGUCGCUGGCGCCGGCUGGGCAACAAUCCGAGGGGACCGUCCCCUCGGUAAUGGCGAAUGGGACCCA [C22G U46A], the self-cleavage is 0.0519. Take GGCCGGCAUGGUCCCAGCCUCGUCGCUGGCGCCGGCUGGGCAACAGUCCGAGGGGACCGUCCCCUCGGUAAUGGCGAAUGGGACCCA [C22G U46G]: the self-cleavage came to 0.0875. As for GGCCGGCAUGGUCCCAGCCUCGUCGCUGGCGCCGUCUGGGCAACAUUCCGAGGGGACCGUCCCCUCGGUAAUGGCGAAUGGGACCCA [C22G G35U], the self-cleavage was found to be 0.102.

As to GGCCGGCAUGGUCCCAGCCUCGUCGCUGGCGCCGACUGGGCAACAUUCCGAGGGGACCGUCCCCUCGGUAAUGGCGAAUGGGACCCA [C22G G35A], the self-cleavage stood at 0.0615. Regarding GGCCGGCAUGGUCCCAGCCUCUUCGCUGGCGCCGGCUGGGCAACAUUCCGAGGGGACCGUCCCCUCCGUAAUGGCGAAUGGGACCCA [C22U G67C], the self-cleavage was 0.535. For GGCCGGCAUGGUCCCAGCCUCUUCGCUGGCGCCGGCUGGGCAACAUUCCGAGGGGACCGUCCCCUCAGUAAUGGCGAAUGGGACCCA [C22U G67A], the self-cleavage was found to be 0.522. For the variant GGCCGGCAUGGUCCCAGCCUCGUCGCUGGCGCCAGCUGGGCAACAUUCCGAGGGGACCGUCCCCUCGGUAAUGGCGAAUGGGACCCA [C22G G34A], the self-cleavage worked out at 0.0339. Then GGCCGGCAUGGUCCCAGCCUCGUCGCUGGCGCCUGCUGGGCAACAUUCCGAGGGGACCGUCCCCUCGGUAAUGGCGAAUGGGACCCA [C22G G34U], with 0.0627; and GGCCGGCAUGGUCCCAGCCUCUUCGCUGGCGCCGGCUGGGCGACAUUCCGAGGGGACCGUCCCCUCGGUAAUGGCGAAUGGGACCCA [C22U A42G], with 0.0755. As for GGCCGGCAUGGUCCCAGCCUCGUCGCUGGCGCCGGCUGGGCAACAUUCCGAGGGGACCGUCCCCUCAGUAAUGGCGAAUGGGACCCA [C22G G67A], the self-cleavage came to 0.0898.
